Experimental findings from publication PMC10294441, “Characterization of 17β-estradiol-degrading enzyme from Microbacterium sp. MZT7 and its function on E2 biodegradation in wastewater” (Microbial Cell Factories, 2023) are described below.

Substrate in the series: C[C@]12CC[C@@H]3c4ccc(O)cc4CC[C@H]3[C@@H]1CC[C@@H]2O
In words: HPLC of estrone (E1) formation. Type of series: biochemical, Microbacterium resistens. Conditions: NAD+ (500 μM in the general assay), pH 7, MSM, 30 °C in the general assay, E2 0.018–0.40 mM.

B1: 17β-HSD-0095 (Microbacterium resistens) (protein)
chain: MPTDPALPDPEPTKGNTMNRYEGRRALVTGGGSGIGQATVLRMLAEGGRVVAADVSPAGLADTVEKAGNAAARLTTVEVNVADEASVKAAVATAVDALGGLDVLVNAAGILRSSHTAETTLEQFETILRVNLVGTFLMIRESIPALLDGQDAAVVNFSSTSAMFAHPYMAAYAASKGGVQSMTHALAAEYAKQGIRFTAVQPGSISSGMTDGSGRSGQSAGPGLPEDADMSLFLKLAPAIGQGFAGPEAVAGVVAMLASADGAFITGTEVRIDGGTHF
notes: about 35 kDa on SDS-PAGE
As for B1, the Km was determined as 480 µM.

As a reminder, the Km is the concentration of substrate that gives half-maximal velocity.
